Consider one substance from paper PMC5986150.

Assay [1] concerns the target Calmodulin of Calmodulin Sepharose 4B (GE Healthcare Life Sciences) (UniProt P62157). The assay is described as follows: pull-down; commercial Calmodulin Sepharose 4B (GE); clarified E. coli lysate with CaN (2 mM CaCl2) incubated with the resin at 4°C, in parallel with the 12-ADA CaM resins; eluted with 1 mM EGTA; semi-quantitative SDS-PAGE with Coomassie.
Assay [2] deals with 12-ADA CaM (Drosophila melanogaster calmodulin engineered with an N-terminal N-myristoyl transferase recognition peptide and labelled with 12-azidododecanoic acid) (Drosophila melanogaster) (UniProt P62152). The assay is described as follows: pull-down; purified 12-ADA CaM (1, 2 or 5 mg mL^-1) conjugated to DBCO-Sepharose; clarified E. coli lysate with CaN (25 mM Tris pH 7.5, 3 mM MgCl2, 100 mM NaCl, 2 mM CaCl2) incubated with the resin at 4°C for 45 minutes - 1 hr; washes with 2 mM CaCl2, one with 1 M NaCl; eluted with 1 mM EGTA; semi-quantitative SDS-PAGE with Coomassie.

For assay [3] the target is unchanged. In words: pull-down; 12-ADA CaM conjugated to DBCO-Sepharose directly from clarified lysate, resin washed; clarified E. coli lysate with CaN (25 mM Tris pH 7.5, 3 mM MgCl2, 100 mM NaCl, 2 mM CaCl2) incubated with the resin at 4°C for 45 minutes - 1 hr; washes with 2 mM CaCl2, one with 1 M NaCl; eluted with 1 mM EGTA; semi-quantitative SDS-PAGE with Coomassie.

For “Human calcineurin (CaN), α and β subunits (from UniProt Q08209 1-521; P63098 1-170) (complex)”, the avg. amount of CaN purified from the resin was determined as 0.2 mg in assay [1], 0.1 mg in assay [2] and 0.6 mg in assay [3].
